One assay concerns the target T1, human GIP receptor (human, UniProt P48546 22-466).
T1 sequence (looked up): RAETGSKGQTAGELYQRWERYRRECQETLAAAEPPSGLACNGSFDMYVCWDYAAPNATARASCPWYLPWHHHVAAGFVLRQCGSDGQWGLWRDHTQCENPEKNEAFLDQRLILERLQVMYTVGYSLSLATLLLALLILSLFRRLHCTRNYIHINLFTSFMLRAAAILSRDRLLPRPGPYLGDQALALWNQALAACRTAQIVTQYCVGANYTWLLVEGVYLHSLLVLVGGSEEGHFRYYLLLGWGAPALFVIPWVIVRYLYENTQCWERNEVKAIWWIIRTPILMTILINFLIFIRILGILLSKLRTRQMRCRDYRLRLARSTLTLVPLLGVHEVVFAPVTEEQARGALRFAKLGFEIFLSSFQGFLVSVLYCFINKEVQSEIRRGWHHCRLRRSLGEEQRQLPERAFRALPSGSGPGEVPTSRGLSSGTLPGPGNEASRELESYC
Briefly: cell-based or functional assay.

A further assay deals with human GLP-1 receptor (human, UniProt P43220 24-463). Briefly: cell-based or functional assay.

Where a chain is given by its changes, count along the chain named. Numbered stars: 1 amine (or outer) side, 2 acyl side, 3 side chain; on linkers, the order of the positions; unused ones are H or OH. Square brackets hold non-standard residues; d marks the D form. Side chains are listed from the residue outwards. Ends that are not written are not given here. * marks the point of attachment. C20 diacid = O=C(O)CCCCCCCCCCCCCCCCCCC(=O)*; γGlu = O=C(O)[C@H](CCC(=O)[*:2])N[*:1]; Desaminohistidyl = O=C(CCc1c[nH]cn1)*; αMeF = C[C@](N)(Cc1ccccc1)C(=O)O; AEEA = NCCOCCOCC(=O)O; Aib = CC(C)(N)C(=O)O

B1: Example 9 (peptide)
peptide: Y[Aib]EGTFTSDYSILLDSK([AEEA-AEEA-γGlu-C20 diacid])AQ[Aib]AFIEYLIEGGPSSGAPPPS-NH2
modifications: N-terminus assumed
SMILES: CC[C@H](C)[C@H](NC(=O)[C@H](CC(C)C)NC(=O)[C@H](Cc1ccc(O)cc1)NC(=O)[C@H](CCC(=O)O)NC(=O)[C@@H](NC(=O)[C@H](Cc1ccccc1)NC(=O)[C@H](C)NC(=O)C(C)(C)NC(=O)[C@H](CCC(N)=O)NC(=O)[C@H](C)NC(=O)[C@H](CCCCNC(=O)COCCOCCNC(=O)COCCOCCNC(=O)CC[C@H](NC(=O)CCCCCCCCCCCCCCCCCCC(=O)O)C(=O)O)NC(=O)[C@H](CO)NC(=O)[C@H](CC(=O)O)NC(=O)[C@H](CC(C)C)NC(=O)[C@H](CC(C)C)NC(=O)[C@@H](NC(=O)[C@H](CO)NC(=O)[C@H](Cc1ccc(O)cc1)NC(=O)[C@H](CC(=O)O)NC(=O)[C@H](CO)NC(=O)[C@@H](NC(=O)[C@H](Cc1ccccc1)NC(=O)[C@@H](NC(=O)CNC(=O)[C@H](CCC(=O)O)NC(=O)C(C)(C)NC(=O)[C@@H](N)Cc1ccc(O)cc1)[C@@H](C)O)[C@@H](C)O)[C@@H](C)CC)[C@@H](C)CC)C(=O)N[C@@H](CCC(=O)O)C(=O)NCC(=O)NCC(=O)N1CCC[C@H]1C(=O)N[C@@H](CO)C(=O)N[C@@H](CO)C(=O)NCC(=O)N[C@@H](C)C(=O)N1CCC[C@H]1C(=O)N1CCC[C@H]1C(=O)N1CCC[C@H]1C(=O)N[C@@H](CO)C(N)=O
For the molecule B1, in the assay with human GIP receptor, the “hGIPR cAMP EC50 ratio” value was found to be 0.768 and the “hGIPR cAMP Rel EC50” value was 0.21 nM. Moreover, in the assay with human GLP-1 receptor, the “hGLP1R cAMP EC50 ratio” value came to 0.314 and the “hGLP1R cAMP Rel EC50” value came to 0.194 nM.

B2: Example 10 (peptide)
peptide: Y[Aib]EGTFTSDYSILLDSIAQ[Aib]AFIK([AEEA-AEEA-γGlu-C20 diacid])YLLA[Aib]GPSSGAPPPS-NH2
modifications: N-terminus assumed
SMILES: CC[C@H](C)[C@H](NC(=O)[C@H](CO)NC(=O)[C@H](CC(=O)O)NC(=O)[C@H](CC(C)C)NC(=O)[C@H](CC(C)C)NC(=O)[C@@H](NC(=O)[C@H](CO)NC(=O)[C@H](Cc1ccc(O)cc1)NC(=O)[C@H](CC(=O)O)NC(=O)[C@H](CO)NC(=O)[C@@H](NC(=O)[C@H](Cc1ccccc1)NC(=O)[C@@H](NC(=O)CNC(=O)[C@H](CCC(=O)O)NC(=O)C(C)(C)NC(=O)[C@@H](N)Cc1ccc(O)cc1)[C@@H](C)O)[C@@H](C)O)[C@@H](C)CC)C(=O)N[C@@H](C)C(=O)N[C@@H](CCC(N)=O)C(=O)NC(C)(C)C(=O)N[C@@H](C)C(=O)N[C@@H](Cc1ccccc1)C(=O)N[C@H](C(=O)N[C@@H](CCCCNC(=O)COCCOCCNC(=O)COCCOCCNC(=O)CC[C@H](NC(=O)CCCCCCCCCCCCCCCCCCC(=O)O)C(=O)O)C(=O)N[C@@H](Cc1ccc(O)cc1)C(=O)N[C@@H](CC(C)C)C(=O)N[C@@H](CC(C)C)C(=O)N[C@@H](C)C(=O)NC(C)(C)C(=O)NCC(=O)N1CCC[C@H]1C(=O)N[C@@H](CO)C(=O)N[C@@H](CO)C(=O)NCC(=O)N[C@@H](C)C(=O)N1CCC[C@H]1C(=O)N1CCC[C@H]1C(=O)N1CCC[C@H]1C(=O)N[C@@H](CO)C(N)=O)[C@@H](C)CC
Regarding B2, in the assay with human GIP receptor, the “hGIPR cAMP EC50 ratio” value was determined as 0.151 and the “hGIPR cAMP Rel EC50” value was determined as 1.28 nM. In addition, in the assay with human GLP-1 receptor, the “hGLP1R cAMP EC50 ratio” value stood at 0.00912 and the “hGLP1R cAMP Rel EC50” value was found to be 7.64 nM.

B3: Example 107 (peptide)
peptide: XXEGTFTSDYSILLDKKAQXAFIEYLIEGGPSSGAPPPS
modifications: DesTyr1; Aib2; K17((2-[2-(2-Amino-ethoxy)-ethoxy]-acetyl)2-(γ-Glu)-CO-(CH2)18-CO2H); Aib20; C-terminal NH2
Turning to B3, in the assay with human GIP receptor, the “hGIPR cAMP EC50 ratio” value is 0.747 and the “hGIPR cAMP Rel EC50” value is 0.241 nM. In addition, in the assay with human GLP-1 receptor, the “hGLP1R cAMP EC50 ratio” value turned out to be 1.1 and the “hGLP1R cAMP Rel EC50” value was 0.0539 nM.

B4: Example 8 (peptide)
peptide: B3 peptide with X1Y
modifications: Aib2; K17((2-[2-(2-Amino-ethoxy)-ethoxy]-acetyl)2-(γ-Glu)-CO-(CH2)18-CO2H); Aib20; C-terminal NH2
As for B4, the “hGIPR cAMP Rel EC50” value with human GIP receptor stood at 0.0848 nM. Further, the “hGLP1R cAMP Rel EC50” value with human GLP-1 receptor stood at 0.148 nM.

B5: Example 112 (peptide)
peptide: B3 peptide with X1Y
modifications: Aib2; K17((2-[2-(2-Amino-ethoxy)-ethoxy]-acetyl)-(ϵK)-(γ-Glu)-CO-(CH2)18-CO2H); Aib20; C-terminal NH2
Take B5: the “hGIPR cAMP Rel EC50” value with human GIP receptor was found to be 0.124 nM. In addition, the “hGLP1R cAMP Rel EC50” value with human GLP-1 receptor was determined as 0.16 nM.

B6: Example 110 (peptide)
peptide: B3 peptide with X1Y
modifications: Aib2; K17((2-[2-(2-Amino-ethoxy)-ethoxy]-acetyl)-(γ-Glu)-(Trx)-CO-(CH2)18-CO2H); Aib20; C-terminal NH2
Consider B6, for which the “hGIPR cAMP Rel EC50” value with human GIP receptor turned out to be 0.218 nM. The “hGLP1R cAMP Rel EC50” value in the assay with human GLP-1 receptor is 0.179 nM.

B7: Example 113 (peptide)
peptide: B3 peptide with X1Y
modifications: Aib2; K17((2-[2-(2-Amino-ethoxy)-ethoxy]-acetyl)2-(ϵK)-CO-(CH2)18-CO2H); Aib20; C-terminal NH2
In the case of B7, the “hGIPR cAMP Rel EC50” value with human GIP receptor was 0.166 nM. For the same molecule, the “hGLP1R cAMP Rel EC50” value with human GLP-1 receptor came out at 0.233 nM.

B8: Example 7 (peptide)
peptide: Y[Aib]EGTFTSDYSILLDSK([AEEA-AEEA-γGlu-C20 diacid])AQ[Aib]AFIEYLLEGGPSSGAPPPS-NH2
modifications: N-terminus assumed
SMILES: CC[C@H](C)[C@H](NC(=O)[C@H](Cc1ccccc1)NC(=O)[C@H](C)NC(=O)C(C)(C)NC(=O)[C@H](CCC(N)=O)NC(=O)[C@H](C)NC(=O)[C@H](CCCCNC(=O)COCCOCCNC(=O)COCCOCCNC(=O)CC[C@H](NC(=O)CCCCCCCCCCCCCCCCCCC(=O)O)C(=O)O)NC(=O)[C@H](CO)NC(=O)[C@H](CC(=O)O)NC(=O)[C@H](CC(C)C)NC(=O)[C@H](CC(C)C)NC(=O)[C@@H](NC(=O)[C@H](CO)NC(=O)[C@H](Cc1ccc(O)cc1)NC(=O)[C@H](CC(=O)O)NC(=O)[C@H](CO)NC(=O)[C@@H](NC(=O)[C@H](Cc1ccccc1)NC(=O)[C@@H](NC(=O)CNC(=O)[C@H](CCC(=O)O)NC(=O)C(C)(C)NC(=O)[C@@H](N)Cc1ccc(O)cc1)[C@@H](C)O)[C@@H](C)O)[C@@H](C)CC)C(=O)N[C@@H](CCC(=O)O)C(=O)N[C@@H](Cc1ccc(O)cc1)C(=O)N[C@@H](CC(C)C)C(=O)N[C@@H](CC(C)C)C(=O)N[C@@H](CCC(=O)O)C(=O)NCC(=O)NCC(=O)N1CCC[C@H]1C(=O)N[C@@H](CO)C(=O)N[C@@H](CO)C(=O)NCC(=O)N[C@@H](C)C(=O)N1CCC[C@H]1C(=O)N1CCC[C@H]1C(=O)N1CCC[C@H]1C(=O)N[C@@H](CO)C(N)=O
With B8, in the assay with human GIP receptor, the “hGIPR cAMP EC50 ratio” value is 0.317 and the “hGIPR cAMP Rel EC50” value came to 0.461 nM. In addition, in the assay with human GLP-1 receptor, the “hGLP1R cAMP EC50 ratio” value was found to be 0.13 and the “hGLP1R cAMP Rel EC50” value came out at 0.47 nM.

B9: Example 117 (peptide)
peptide: Y[Aib]EGT[αMeF]TSDYSI[Aib]LDEK([AEEA-AEEA-γGlu-C20 diacid])AQ[Aib]AFIEYLIEGGPSSGAPPPS-NH2
modifications: N-terminus assumed
SMILES: CC[C@H](C)[C@H](NC(=O)[C@H](CC(C)C)NC(=O)[C@H](Cc1ccc(O)cc1)NC(=O)[C@H](CCC(=O)O)NC(=O)[C@@H](NC(=O)[C@H](Cc1ccccc1)NC(=O)[C@H](C)NC(=O)C(C)(C)NC(=O)[C@H](CCC(N)=O)NC(=O)[C@H](C)NC(=O)[C@H](CCCCNC(=O)COCCOCCNC(=O)COCCOCCNC(=O)CC[C@H](NC(=O)CCCCCCCCCCCCCCCCCCC(=O)O)C(=O)O)NC(=O)[C@H](CCC(=O)O)NC(=O)[C@H](CC(=O)O)NC(=O)[C@H](CC(C)C)NC(=O)C(C)(C)NC(=O)[C@@H](NC(=O)[C@H](CO)NC(=O)[C@H](Cc1ccc(O)cc1)NC(=O)[C@H](CC(=O)O)NC(=O)[C@H](CO)NC(=O)[C@@H](NC(=O)[C@](C)(Cc1ccccc1)NC(=O)[C@@H](NC(=O)CNC(=O)[C@H](CCC(=O)O)NC(=O)C(C)(C)NC(=O)[C@@H](N)Cc1ccc(O)cc1)[C@@H](C)O)[C@@H](C)O)[C@@H](C)CC)[C@@H](C)CC)C(=O)N[C@@H](CCC(=O)O)C(=O)NCC(=O)NCC(=O)N1CCC[C@H]1C(=O)N[C@@H](CO)C(=O)N[C@@H](CO)C(=O)NCC(=O)N[C@@H](C)C(=O)N1CCC[C@H]1C(=O)N1CCC[C@H]1C(=O)N1CCC[C@H]1C(=O)N[C@@H](CO)C(N)=O
Consider B9, for which, in the assay with human GIP receptor, the “hGIPR cAMP EC50 ratio” value came to 2.44 and the “hGIPR cAMP Rel EC50” value was found to be 0.0648 nM. Besides, in the assay with human GLP-1 receptor, the “hGLP1R cAMP EC50 ratio” value is 0.998 and the “hGLP1R cAMP Rel EC50” value was 0.0615 nM.

With [Desaminohistidyl][Aib]EGTFTSDYSILLDKK([AEEA-AEEA-γGlu-C20 diacid])AQ[Aib]AFIEYLIEGGPSSGAPPPS-NH2 [Example 106], in the assay with human GIP receptor, the “hGIPR cAMP EC50 ratio” value came out at 0.0302 and the “hGIPR cAMP Rel EC50” value came out at 6.54 nM. Besides, in the assay with human GLP-1 receptor, the “hGLP1R cAMP EC50 ratio” value came out at 1.42 and the “hGLP1R cAMP Rel EC50” value was 0.0413 nM.

The values above are taken from patent US20220048967A1 (published 2022).
